In patent US20130136756A1:

Legend:
24P4C12 (human) [1] = biological target: 24P4C12 (human) (UniProt Q53GD3); assay: FACS on LNCaP cells, ADC at 23.704 nM
24P4C12 (human) [2] = biological target: 24P4C12 (human) (UniProt Q53GD3); assay: FACS on LNCaP cells, ADC at 0.011 nM
24P4C12 (human) [3] = biological target: 24P4C12 (human) (UniProt Q53GD3); assay: FACS saturation binding on LNCaP cells (endogenous 24P4C12), one site fit
24P4C12 (human) [4] = biological target: 24P4C12 (human) (UniProt Q53GD3); assay: FACS on LNCaP cells, ADC at 2.634 nM
24P4C12 (human) [5] = biological target: 24P4C12 (human) (UniProt Q53GD3); assay: FACS on LNCaP cells, ADC at 106.667 nM
24P4C12 (human) [6] = biological target: 24P4C12 (human) (UniProt Q53GD3); assay: FACS on LNCaP cells, ADC at 160.000 nM
24P4C12 (human) [7] = biological target: 24P4C12 (human) (UniProt Q53GD3); assay: FACS on LNCaP cells, ADC at 0.878 nM
24P4C12 (human) [8] = biological target: 24P4C12 (human) (UniProt Q53GD3); assay: FACS on LNCaP cells, ADC at 0.098 nM
24P4C12 (human) [9] = biological target: 24P4C12 (human) (UniProt Q53GD3); assay: FACS on LNCaP cells, ADC at 0.033 nM
24P4C12 (human) [10] = biological target: 24P4C12 (human) (UniProt Q53GD3); assay: FACS on LNCaP cells, ADC at 7.901 nM
24P4C12 (human) [11] = biological target: 24P4C12 (human) (UniProt Q53GD3); assay: FACS on LNCaP cells, ADC at 0.293 nM
24P4C12 (human) [12] = biological target: 24P4C12 (human) (UniProt Q53GD3); assay: FACS on LNCaP cells, ADC at 71.111 nM

UniProt Q53GD3, sequence (Q53GD3 whole entry): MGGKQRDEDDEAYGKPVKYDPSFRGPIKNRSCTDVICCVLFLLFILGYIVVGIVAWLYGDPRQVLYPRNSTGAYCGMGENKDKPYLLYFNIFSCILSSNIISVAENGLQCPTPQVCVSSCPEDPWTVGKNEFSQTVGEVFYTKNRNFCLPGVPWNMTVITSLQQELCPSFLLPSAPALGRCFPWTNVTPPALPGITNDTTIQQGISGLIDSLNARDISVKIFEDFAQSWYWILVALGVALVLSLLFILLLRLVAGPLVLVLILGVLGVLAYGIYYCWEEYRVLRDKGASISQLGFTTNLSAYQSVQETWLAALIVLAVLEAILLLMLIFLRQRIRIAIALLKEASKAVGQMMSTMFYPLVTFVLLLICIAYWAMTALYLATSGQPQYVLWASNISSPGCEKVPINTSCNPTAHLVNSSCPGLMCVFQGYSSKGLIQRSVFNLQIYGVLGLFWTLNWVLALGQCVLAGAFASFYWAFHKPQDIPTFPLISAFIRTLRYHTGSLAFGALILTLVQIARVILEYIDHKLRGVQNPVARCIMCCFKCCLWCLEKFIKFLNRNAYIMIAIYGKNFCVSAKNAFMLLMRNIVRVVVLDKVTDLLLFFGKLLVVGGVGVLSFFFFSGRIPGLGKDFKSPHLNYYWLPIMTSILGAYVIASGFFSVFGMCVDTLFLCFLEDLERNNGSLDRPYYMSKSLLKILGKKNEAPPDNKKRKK

MFI (24P4C12 (human) [1]): 97 MFI | MFI (24P4C12 (human) [2]): 7 MFI | Kd (24P4C12 (human) [3]): 1.05 nM | MFI (24P4C12 (human) [4]): 70 MFI | MFI (24P4C12 (human) [5]): 114 MFI | MFI (24P4C12 (human) [6]): 116 MFI | MFI (24P4C12 (human) [7]): 54 MFI | MFI (24P4C12 (human) [8]): 15 MFI | MFI (24P4C12 (human) [9]): 9 MFI | MFI (24P4C12 (human) [10]): 86 MFI | MFI (24P4C12 (human) [11]): 28 MFI | MFI (24P4C12 (human) [12]): 108 MFI
B1: Ha5-1(5)2.1vcMMAE (protein)
heavy: QVQLVESGGGVVQPGRSLRLSCAASGFTFSSYGMHWVRQAPGKGLEWVAVMSYDGSKKFYTDSVKGRFTISRDNSKNTLYLQMNSLRAEDTAVYYCARDGGDYVRYHYYGMDVWGQGTTVTVSSASTKGPSVFPLAPCSRSTSESTAALGCLVKDYFPEPVTVSWNSGALTSGVHTFPAVLQSSGLYSLSSVVTVPSSNFGTQTYTCNVDHKPSNTKVDKTVERKCCVECPPCPAPPVAGPSVFLFPPKPKDTLMISRTPEVTCVVVDVSHEDPEVQFNWYVDGVEVHNAKTKPREEQFNSTFRVVSVLTVVHQDWLNGKEYKCKVSNKGLPAPIEKTISKTKGQPREPQVYTLPPSREEMTKNQVSLTCLVKGFYPSDIAVEWESNGQPENNYKTTPPMLDSDGSFFLYSKLTVDKSRWQQGNVFSCSVMHEALHNHYTQKSLSLSPGK
light: DIQMTQSPSTLSASIGDRVTITCRASQGISYYLAWYQQKPGKIPKLLIYDTSSLQSGVPSRFSGSRSGTDLSLTISSLQPEDVATYYCQRYDSAPLTFGGGTKVEIKRTVAAPSVFIFPPSDEQLKSGTASVVCLLNNFYPREAKVQWKVDNALQSGNSQESVTEQDSKDSTYSLSSTLTLSKADYEKHKVYACEVTHQGLSSPVTKSFNRGEC
modifications: vcMMAE (Val-Cit linker, monomethyl auristatin E) on cysteine thiols after partial TCEP reduction; p about 3.6 per antibody; positions not given
